Measured values reported in patent US20230139700A1 (BIO THERA SOLUTIONS, published 2023).

T1: hOX40-his (human, UniProt P43489 29-216)
T1 construct: range 1-216; Made in HEK293; The stated range starts at residue 1 (holds the signal peptide of the entry); no cleavage site stated; not shown: his tag
T1 sequence (looked up): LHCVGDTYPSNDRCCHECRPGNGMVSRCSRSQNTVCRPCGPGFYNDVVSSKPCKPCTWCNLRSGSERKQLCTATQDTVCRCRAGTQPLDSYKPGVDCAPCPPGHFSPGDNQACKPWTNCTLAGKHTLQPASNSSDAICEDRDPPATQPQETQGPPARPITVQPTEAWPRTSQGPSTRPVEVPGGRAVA

T2: hOX40-FC (human, UniProt P43489 29-216)
T2 construct: range 1-216; Made in HEK293; The stated range 1-216 starts at residue 1, so it holds the signal peptide of the entry; also called human OX40 extracellular region fused to human IgG1-Fc; not shown: human IgG1-Fc, UniProt P01857, residues 104 to 330
T2 sequence (looked up): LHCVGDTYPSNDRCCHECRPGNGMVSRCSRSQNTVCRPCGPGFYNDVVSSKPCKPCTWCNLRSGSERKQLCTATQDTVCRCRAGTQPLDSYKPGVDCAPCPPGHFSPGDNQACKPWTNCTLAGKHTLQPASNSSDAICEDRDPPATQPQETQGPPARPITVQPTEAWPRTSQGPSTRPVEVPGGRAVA

B1: WEST + VG (antibody, human IgG1, kappa, V domains shown)
VH: QVQLEESGGGVVQPGESLRLSCAASGFTFSSYGMHWVRQAPGKGLEWVAVIWEDGSNQYYADSVKGRFTISRDNSKNTLYLQMNSLRAEDTAVYYCAKDNQDTSPDVGIDYWGQGTLVTVSS
VL: DIQMTQSPSSLSASVGDTVTITCRASQNISPFLNWYQQKPGKAPKLLIYAAVGLQSGVPSRFSGSGSGTDFTLTISSLQPEDFATYYCQQYNSYPLTFGGGTKVEIKR
B2: T + TD (antibody, human IgG1, kappa, V domains shown)
VH: QVQLEESGGGVVQPGESLRLSCAASGFTFSSYGMHWVRQAPGKGLEWVAVISYDGSNQYYADSVKGRFTISRDNSKNTLYLQMNSLRAEDTAVYYCAKDNQDTSPDVGIDYWGQGTLVTVSS
VL: DIQMTQSPSSLSASVGDTVTITCRASQNISPFLNWYQQKPGKAPKLLIYAASSLQSGVPSRFSGSGSGTDFTLTISSLQPEDFATYYCQQYTDYPLTFGGGTKVEIKR
B3: T + VG (antibody, human IgG1, kappa, V domains shown)
VH: QVQLEESGGGVVQPGESLRLSCAASGFTFSSYGMHWVRQAPGKGLEWVAVISYDGSNQYYADSVKGRFTISRDNSKNTLYLQMNSLRAEDTAVYYCAKDNQDTSPDVGIDYWGQGTLVTVSS
VL: DIQMTQSPSSLSASVGDTVTITCRASQNISPFLNWYQQKPGKAPKLLIYAAVGLQSGVPSRFSGSGSGTDFTLTISSLQPEDFATYYCQQYNSYPLTFGGGTKVEIKR
B4: WEST + VL (antibody, human IgG1, kappa, V domains shown)
VH: QVQLEESGGGVVQPGESLRLSCAASGFTFSSYGMHWVRQAPGKGLEWVAVIWEDGSNQYYADSVKGRFTISRDNSKNTLYLQMNSLRAEDTAVYYCAKDNQDTSPDVGIDYWGQGTLVTVSS
VL: DIQMTQSPSSLSASVGDTVTITCRASQNISPFLNWYQQKPGKAPKLLIYAASSLQSGVPSRFSGSGSGTDFTLTISSLQPEDFATYYCQQYNSYPLTFGGGTKVEIKR
B5: VH + VGTD (antibody, human IgG1, kappa, V domains shown)
VH: QVQLEESGGGVVQPGESLRLSCAASGFTFSSYGMHWVRQAPGKGLEWVAVISYDGSNQYYADSVKGRFTISRDNSKNTLYLQMNSLRAEDTAVYYCAKDNQDSSPDVGIDYWGQGTLVTVSS
VL: DIQMTQSPSSLSASVGDTVTITCRASQNISPFLNWYQQKPGKAPKLLIYAAVGLQSGVPSRFSGSGSGTDFTLTISSLQPEDFATYYCQQYTDYPLTFGGGTKVEIKR
B6: T + VGL + TD (antibody, human IgG1, kappa, V domains shown)
VH: QVQLEESGGGVVQPGESLRLSCAASGFTFSSYGMHWVRQAPGKGLEWVAVISYDGSNQYYADSVKGRFTISRDNSKNTLYLQMNSLRAEDTAVYYCAKDNQDTSPDVGIDYWGQGTLVTVSS
VL: DIQMTQSPSSLSASVGDTVTITCRASQNISPFLNWYQQKPGKAPKLLIYAAVGLQSGVPSRFSGSGSGTDFTLTISSLQPEDFATYYCQQYTDYPLTFGGGTKVEIKR
B7: WEST + TD (antibody, human IgG1, kappa, V domains shown)
VH: QVQLEESGGGVVQPGESLRLSCAASGFTFSSYGMHWVRQAPGKGLEWVAVIWEDGSNQYYADSVKGRFTISRDNSKNTLYLQMNSLRAEDTAVYYCAKDNQDTSPDVGIDYWGQGTLVTVSS
VL: DIQMTQSPSSLSASVGDTVTITCRASQNISPFLNWYQQKPGKAPKLLIYAASSLQSGVPSRFSGSGSGTDFTLTISSLQPEDFATYYCQQYTDYPLTFGGGTKVEIKR
B8: Antibody-X35-6L (antibody, human IgG1, kappa, V domains shown)
VH: EVQLVESGGGLVQPGRSLRLSCAASGFTFDDYAMHWVRQAPGRGLEWVSGIGGSGGSTYYADSVKGRFTISRDNSKNTLYLQMNGLGAEDTAVYYCAKDRGYGDYYWYFDLWGRGTLVTVSS
VL: SSELTQPASVSGSPGQSITISCTGTSSDVGGYNYVSWYQQHPGKAPKLMIYDVSNRPSGVSNRFSGSKSGNTASLTISGLQAEDEADYYCSSYTTSSTLVFGGGTKVTVLR
notes: also called antibody No. 2
B9: Antibody-M5-5k (antibody, human IgG1, kappa, V domains shown)
VH: QVQLVESGGGLIQPGGSLRLSCTASGFTFSTYAMSWVRQAPGKGLEWVSAISGTGDWASYADSVKGRFTTSRDNSRNTLYLQMNNLRDEDTAIYYCAKSSSTVATDFDYGMDVWGQGTLVTVSS
VL: ETTLTQSPSTLSASVGDRVTITCRASEEIGSWLAWYQQTPGKAPKRLIYEASSLQSGVPSRFSGSGSGTDFTLTISSLQPEDFATYYCQQYGSYPPTFGQGTKVEIKR
notes: also called antibody No. 8
B10: Antibody-M5-7k (antibody, human IgG1, kappa, V domains shown)
VH: QVQLVESGGGLIQPGGSLRLSCTASGFTFSTYAMSWVRQAPGKGLEWVSAISGTGDWASYADSVKGRFTTSRDNSRNTLYLQMNNLRDEDTAIYYCAKSSSTVATDFDYGMDVWGQGTLVTVSS
VL: DIVMTQSPSTLSASVGDRVTVTCRASEDIGRWLAWYQQKPGKAPKRLIYAASSLQSGVPSRFSGSGSGTEFTLTISSLQPEDFATYYCQQYYNYPPTFGQGTKVEIKR
notes: also called antibody No. 9
B11: Antibody-A6-1k (antibody, human IgG1, kappa, V domains shown)
VH: QVQLQRSGGGLVQPGGSLRLSCAASGFTFSSYGMTWVRQAPGKGLEWVSAISNSGGSTYYADSVKGRFTISRDNSKNTLYLQMNSLRAEDTAVYYCAKDGPYFDYWGQGTLVTVSS
VL: DIQMTQSPSTLSASVGDRVTITCRVSQGIGDDLGWYQQKPGKAPKLLIYKASNLESGVPSRFSGSGSGTDFSLTISSLQPEDFATYFCQQAHSFPPTFGGGTKLEIKR
notes: also called Antibody-A6-lk; antibody No. 7
B12: Antibody-F23-7k (antibody, human IgG1, kappa, V domains shown)
VH: QVQLEESGGGVVQPGESLRLSCAASGFTFSSYGMHWVRQAPGKGLEWVAVISYDGSNQYYADSVKGRFTISRDNSKNTLYLQMNSLRAEDTAVYYCAKDNQDSSPDVGIDYWGQGTLVTVSS
VL: DIQMTQSPSSLSASVGDRVTITCRASQSISSYLNWYQQKPGKAPKLLMYAASSLQSGVPSRFSGSGSGTDFTLTISSLQPEDFATYYCLQIDSYPLTFGGGTKVEIKR
notes: also called antibody No. 5
B13: Antibody-F15-1L (antibody, human IgG1, kappa, V domains shown)
VH: QVQLRESGGGLVQPGGSLRLSCAASGFTFSSYAMNWVRQAPGKGLEWVSAISGSGGNTYYADSVKGRLTISRDNSKNTLYLQMNSLRAEDTAVYYCAKDPLGSSWFEYFQHWGQGTLVTVSS
VL: QSALTQPASVSGSPGQSITISCTGTSSDVGGYNYVSWYQKHPGKAPKLMIYEVSNRPSGVSNRFSGSKSANTASLTISGLQAEDEADYFCSSYSSSSTLVVFGGGTKLTVLR
notes: also called Antibody-F15-IL; antibody No. 3
B14: Antibody-FE-16H (antibody, human IgG1, kappa, V domains shown)
VH: QVQLVESGGGLVQPGGSLRLSCAASGFTFSSYAMSWVRQAPGKGLEWVSAISGSGGSTYYADSVKGRFTISRDNSKNSLYLQMNSLRAEDTAVYYCARGDSSSWFIFQDWGQGTLVTVSS
VL: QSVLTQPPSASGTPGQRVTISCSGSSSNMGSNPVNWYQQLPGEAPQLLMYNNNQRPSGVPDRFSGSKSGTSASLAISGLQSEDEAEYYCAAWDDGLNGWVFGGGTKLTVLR
notes: also called antibody No. 10
B15: Antibody-A2 (antibody, human IgG1, kappa, V domains shown)
VH: QVQLVESGGGLIQPGGSLRLSCAASGFTVSSNYMSWVRQAPGEGLEWIATIYYGGSTYYNPSLKSRVTISADMSKNQFSLKLSSMTAADTAVYYCARVVVPGYFDLWGRGTLVTVSS
VL: SSELTQDPAVSVALGQTVSITCQGDSLRSYYASWYQQKPGQAPVPVIYGKNNRPSGIPDRFSGSSSGNTASLTITGAQAEDEADYYCHSRDSSGKYVFGVGTKLTVLR
notes: also called antibody No. 11

The binders below were run against T1, hOX40-his (assay: BIACORE, antibody on the probe, 20 nM OX40-his).
Source text: Table 10 illustrates the CDRs of eight full antibodies containing these amino acid mutations, and the rest of the sequences are the same as those of antibody-F23-32K. […] The sequences of the anti-OX40 antibody (antibody M) are shown in Table 12; wherein, the expression cells used for the antibodies above (including antibody M) are CHO-S cells, and the method for preparing the antibody M-KF is as follows: the antibody M was identical to the antibody M-KF in terms of amino acid sequence and was expressed by the CHO cell line in which the fut8 gene was knocked out (the content of fucose in antibody M-KF was about 0%).
B1 gave a Kd of 0.77 nM, a koff of 0.000348 s⁻¹ and a kon of 452000 M⁻¹ s⁻¹. B2 was tested, and the Kd was 5.01 nM, the koff was 0.00139 s⁻¹ and the kon was 278000 M⁻¹ s⁻¹. B3 gave a Kd of 4.54 nM, a koff of 0.00133 s⁻¹ and a kon of 292000 M⁻¹ s⁻¹. With B4 the Kd was 1.93 nM, the koff was 0.000714 s⁻¹ and the kon was 371000 M⁻¹ s⁻¹. In the case of B5, the Kd is reported as 0.565 nM, the koff is reported as 0.000243 s⁻¹ and the kon is reported as 431000 M⁻¹ s⁻¹. B6 gave a Kd of 0.266 nM, a koff of 0.000119 s⁻¹ and a kon of 448000 M⁻¹ s⁻¹. Binder B7 has a Kd of 0.653 nM, a koff of 0.000321 s⁻¹ and a kon of 491000 M⁻¹ s⁻¹.

These binders were tested against T2, hOX40-FC (assay: BLI (ForteBio), biotinylated antibody on SA sensor, OX40-Fc 50 nM bivalent, 1:1 model).
Experimental: The ForteBio affinity assay was conducted according to the existing conventional method (Estep, P et al., MAbs, 2013, 5(2): 270-8). The brief process is as follows: the sensor was equilibrated offline in an assay buffer (such as PBS) for 20 min and then subjected to online test for 60 s to establish a signal baseline. The purified antibodies obtained as described above were each loaded online onto a corresponding sensor (ForteBio), and finally the ForteBio affinity assay was conducted. The biotinylated candidate antibodies were adsorbed with the SA sensor, and binding and dissociation of hOX40-FC were each detected for about 5 min. The results are shown in Table 4, and N.D indicates not detected in Table 4. Finally, kinetic analysis was performed for all by using a 1:1 binding model.
B8 gave a Kd of under 0.1 nM. B9 was tested, and the Kd was 2 nM. With B10 the Kd was 0.4 nM. Work on B11 yielded a Kd of 4 nM. Binder B12 has a Kd of 2 nM. With B13 the Kd was 3 nM. B14 showed a Kd of 3 nM. For B15, the Kd was 9 nM.
